The values that follow come from patent publication US20130195757, “SPARC BINDING APTAMERS AND USES THEREOF” (ABRAXIS BIOSCIENCE, LLC, published 2013).

In series [1] the target is T1, SPARC (osteonectin), recombinant human (Biol-SPARC) (Homo sapiens, UniProt P09486 P09486:18-303).
T1 sequence: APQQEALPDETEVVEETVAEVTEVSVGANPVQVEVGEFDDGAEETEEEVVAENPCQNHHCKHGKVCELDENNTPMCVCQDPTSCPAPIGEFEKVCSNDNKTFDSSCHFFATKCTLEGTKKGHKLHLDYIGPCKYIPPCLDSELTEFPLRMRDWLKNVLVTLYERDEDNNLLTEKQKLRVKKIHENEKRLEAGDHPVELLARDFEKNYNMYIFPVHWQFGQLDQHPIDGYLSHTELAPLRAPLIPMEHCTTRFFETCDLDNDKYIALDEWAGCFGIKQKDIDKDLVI
Kind of series: SPR; heterogeneous ligand model KD1; KD2 0.103 mM; units as printed. To be noted: tags: Biol; amine-coupled to CM5 chip or injected as analyte. The method, then: (§1) Purified SPARC was immobilized onto the surface of a CM5 biosensor chip (GE/Biacore International AB) by the use of the amine coupling kit and the Surface Preparation tool as present in the BIACORE 3000® control software. The biosensor chip surface was activated by injecting (35 μL at a flow rate of 5 μL/min) a mixture of N-hydroxysuccinimide (NHS) and N-ethyl-N′-(dimethyl-aminopropyl)-carbodiimide (EDC) (1:1; v/v) into one of the four flow channels (Fcs). Then the SPARC, diluted (0.1 mg/mL) in coupling buffer (10 mM sodium acetate, pH 4.5), was injected and bound to the activated carboxymethylated dextran surface via its primary amine groups. After coupling, the remaining active groups were blocked with ethanolamine (1 M). Purified recombinant human VEGF165 (PeproTech, Rocky Hill, N.J.) was diluted into 100 μg/mL in sodium acetate, pH 5.5 and immobilized onto the biosensor chip surface as a control, and VEGF DNA aptamers were injected (FIG. 3). To validate recovery, the resulting bound VEGF aptamers were eluted, and 2 μL were recovered, out of which 0.5 μL was amplified by PCR.
A concentration series of selected oligonucleotide DNA were injected over both reference surface and SPARC surface. […]
On the technique in general: In SPR one partner is held on a chip, and binding of the other changes the refractive index at the surface.

In series [2] the target is T1, SPARC (osteonectin), recombinant human …. Put plainly: SPR; SPARC immobilized. To be noted: tags: Biol; amine-coupled to CM5 chip or injected as analyte. The method, then: as §1
(§2) A concentration series of selected oligonucleotide DNA were injected over both reference surface and SPARC surface. Reference surfaces were used to subtract bulk refractive index responses from the specific SPARC binding signal as well as to ensure that there is no nonspecific interaction with the sensor chip surface.

The target is the same in series [3]. Kind of series: SPR; SPARC immobilized. Particulars: tags: Biol; amine-coupled to CM5 chip or injected as analyte. The source holds these as a separate data set.
Series [4] addresses T2, VEGF165 (Homo sapiens, UniProt P15692-4 P15692-4:27-191). Put plainly: SPR; VEGF immobilized; no specific interaction. Particulars: tags: PeproTech; amine-coupled to CM5 chip; chain copies: 2.
In series [5] the target is T1, SPARC (osteonectin), recombinant human …. Put plainly: SPR; aptamer immobilized on SA chip; 1:1 Langmuir. To be noted: tags: Biol; amine-coupled to CM5 chip or injected as analyte; label: 3'-biotin. The method, then:
20 μM each of biotinylated Apt180 (SEQ ID NO: 1), biotinylated Apt187 (SEQ ID NO: 2), or a control scrambled aptamer with biotin coupled to the 3′-end were immobilized onto commercially prepared SA sensor chips (GE/Biacore International AB), which have preimmobilized streptavidin, to allow biotin capture. Typically 1200 to 1300 RU of biotinylated aptamers were immobilized.
Using methods as described in Examples 2-3, above, biotinylated Apt180 and Apt187 were immobilized on CM5 sensorchips immobilized with streptavidin (SA sensorchips). Biol-SPARC was injected at concentrations ranging from 34.9 nM to 840 nM over the immobilized Apt180 and Apt187. For Apt180, the resulting curves were best fitted by heterogeneous ligand model indicating the possible presence of multiple binding sites.

For series [6], the target named is T2, VEGF165. Kind of series: SPR; negligible binding. To be noted: tags: PeproTech; amine-coupled to CM5 chip; chain copies: 2.
Series [7] addresses T1, SPARC (osteonectin), recombinant human …. Kind of series: SPR; SPARC immobilized on CM5; HBS 10 mM HEPES 150 mM NaCl 0.005% P-20; approx 4 pM in p171. Particulars: tags: Biol; amine-coupled to CM5 chip or injected as analyte. The method, then: After coupling, the remaining active groups were blocked with ethanolamine (1 M). Purified recombinant human VEGF165 (PeproTech, Rocky Hill, N.J.) was diluted into 100 μg/mL in sodium acetate, pH 5.5 and immobilized onto the biosensor chip surface as a control, and VEGF DNA aptamers were injected (FIG. 3). To validate recovery, the resulting bound VEGF aptamers were eluted, and 2 μL were recovered, out of which 0.5 μL was amplified by PCR.
as §2
FIG. 21 depicts a sensorgram showing the binding and dissociation of Apt180 (SEQ ID NO: 1) to a Biol-SPARC immobilized CM5 sensorchip as described in Example 3. […] FIG. 22 is a sensorgram showing the binding and dissociation of Biol-SPARC and a modified Apt180 having the 3′ primer region of the aptamer removed. As described in Example 3, Biol-SPARC was immobilized to CM5 sensorchip and various concentrations (0.625 μM, 1.25 μM, 2.5 μM, 5 μM, and 10 μM) of the 3′ primer deleted Apt180, were injected over the Biol-SPARC sensor chip. The resulting KD calculated from this experiment was 1.45 nM. […]

For series [8], the target named is Bovine serum albumin (Bos taurus, UniProt P02769 P02769:25-607). Kind of series: SPR; negligible binding. To be noted: label: 3'-biotin.
Chain of Bovine serum albumin (P02769 25-607, one chain of several): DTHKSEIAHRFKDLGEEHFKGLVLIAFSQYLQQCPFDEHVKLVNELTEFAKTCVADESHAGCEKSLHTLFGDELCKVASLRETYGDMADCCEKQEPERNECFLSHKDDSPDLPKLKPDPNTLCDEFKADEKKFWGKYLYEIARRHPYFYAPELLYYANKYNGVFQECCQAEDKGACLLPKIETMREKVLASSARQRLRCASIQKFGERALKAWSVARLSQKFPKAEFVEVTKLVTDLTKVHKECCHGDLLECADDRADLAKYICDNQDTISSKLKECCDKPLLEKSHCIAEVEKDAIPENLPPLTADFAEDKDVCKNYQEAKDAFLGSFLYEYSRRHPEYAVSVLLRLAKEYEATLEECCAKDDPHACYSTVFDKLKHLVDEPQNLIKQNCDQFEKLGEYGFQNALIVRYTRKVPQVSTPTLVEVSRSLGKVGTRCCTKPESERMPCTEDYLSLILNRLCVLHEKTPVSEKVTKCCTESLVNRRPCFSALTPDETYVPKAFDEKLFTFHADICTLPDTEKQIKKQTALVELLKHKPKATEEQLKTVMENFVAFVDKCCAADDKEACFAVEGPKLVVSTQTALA
For series [9], the target named is T3, SPARC, mouse (from PYS-2 cells) (Mus musculus, UniProt P07214 P07214:18-302).
T3 sequence: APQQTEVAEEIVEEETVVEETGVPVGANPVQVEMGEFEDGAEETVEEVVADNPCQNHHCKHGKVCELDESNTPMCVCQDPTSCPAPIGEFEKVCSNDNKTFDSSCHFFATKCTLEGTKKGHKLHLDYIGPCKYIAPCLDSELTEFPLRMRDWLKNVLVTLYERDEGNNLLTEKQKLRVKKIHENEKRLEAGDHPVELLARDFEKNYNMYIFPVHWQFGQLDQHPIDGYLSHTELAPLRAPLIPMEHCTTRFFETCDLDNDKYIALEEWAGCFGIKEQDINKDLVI
Kind of series: SPR; aptamer immobilized on SA chip. To be noted: tags: Sigma; PYS-2 parietal yolk sac cells; label: 3'-biotin.

T2 sequence (P15692 other isoform, or with tags, fused parts or gaps): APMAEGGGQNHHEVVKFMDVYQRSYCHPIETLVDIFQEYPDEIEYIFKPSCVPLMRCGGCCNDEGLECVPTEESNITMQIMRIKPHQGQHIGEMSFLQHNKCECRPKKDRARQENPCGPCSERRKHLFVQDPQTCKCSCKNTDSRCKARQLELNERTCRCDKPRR

B1: Apt211 (AptBia211) (ssDNA)
DNA: GAATTCGATGGTAACCAAGGAATATTTGGGGTTTTTTGCTTCTGGACGTCATCTGATCTAGCCAAG
As usually defined, the Kd is a measure of binding affinity in units of concentration. As for B1, in series [1], the Kd was 132000 nM.

B2: Apt231 (AptBia231) (ssDNA)
DNA: GAATTCGATGGTAACCAATGCGCTTATGTTTTTTTTATTTTTTATGTTTCATCTGATCTAGCCAAG
As to B2, the Kd in series [2] amounted to 45.4 nM.

B3: Apt207 (AptBia207) (ssDNA)
DNA: GAATTCGATGGTAACCAAGTGTATTGTTTATTCTTCTGTTTCTTATTGTCATCTGATCTAGCCAAG
As to B3, in [2], the Kd worked out at 139 nM.

B4: Apt181 (ssDNA)
DNA: GAATTCGATGGTAACCAATTTCCGTATTGTTGGTTTGTGTTTGTGTCGTCATCTGATCTAGCCAAG
For the molecule B4, in series [2], the Kd stood at 298 nM.

B5: Apt184 (ssDNA)
DNA: GAATTCGATGGTAACCAACCCAATGTGTTTCGTTTGTTTTCATTTGTCATCTGATCTAGCCAAG
As for B5, the Kd in series [2] was 277 nM.

B6: Apt100 (ssDNA)
DNA: GAATTCGATGGTAACCAAGGTCACTTTTTTATGTCGCTTAAATGTTGGTCATCTGATCTAGCCAAGC
Turning to B6, the Kd in [3] was roughly 300 nM.

B7: Apt216 (AptBia216) (ssDNA)
DNA: GAATTCGATGGTAACCAATGATGTTATTTTTTTGTGCTTTTATTCTTTTCATCTGATCTAGCCAAG
Consider B7, for which the Kd in [2] amounted to 447 nM.

B8: Apt191 (ssDNA)
DNA: GAATTCGATGGTAACCAAGGGGGTGTTTGTTTTTGTAGTCATTGTTGGTCATCTGATCTAGCCAAG
As for B8, the dissociation constant (Kd) in series [2] was 84.2 nM. The binding result in [4] was “no binding”.

B9: Apt187 (ssDNA)
DNA: GAATTCGATGGTAACCAAGGCGGGGTTTTCGTATGCTCATTCCAGTGGTCATCTGATCTAGCCAAG
For B9, the equilibrium dissociation constant (Kd) in series [3] worked out at 0.19 nM.

B10: Apt187 3'-biotin (ssDNA)
DNA: GAATTCGATGGTAACCAAGGCGGGGTTTTCGTATGCTCATTCCAGTGGTCATCTGATCTAGCCAAG
Take B10: in series [5], the Kd was determined as 30.2 nM.

B11: Apt208 (AptBia208) (ssDNA)
DNA: GAATTCGATGGTAACCAAGCAATTTGTATTTTTGTGTATTTATTTTGTTCATCTGATCTAGCCAAG
In the case of B11, in series [2], the Kd was 100 nM.

B12: Apt180 (ssDNA)
DNA: GAATTCGATGGTAACCAAGGCTGTTCGGTATTTTGATATTTTTATGCGTCATCTGATCTAGCCAAG
As to B12, the binding result in series [6] is on record as “no binding”. Moreover, the Kd in series [7] came to 0.0044 nM.

B13: Apt180 3'-biotin (ssDNA)
DNA: GAATTCGATGGTAACCAAGGCTGTTCGGTATTTTGATATTTTTATGCGTCATCTGATCTAGCCAAG
Take B13: the binding result in series [8] is listed as “no binding”. The molecule also yielded a Kd in [9] of 1200 nM.
